Measurements: article PMC5443798, “Functional characterization of the meiosis-specific DNA double-strand break inducing factor SPO-11 from C. elegans”

What was measured:
[1] = biological target: T1, SPO-11 (Caenorhabditis elegans, UniProt Q22236 1-425); test: EMSA; saturated at 4.8 uM SPO-11; EMSA: 42.5 mM Tris-HCl pH 7.5, 115 mM KCl, 1 mM DTT, 0.1 mg/ml BSA, 3% glycerol, 0.15 mM EDTA, 20 C, 30 min, 300 nM DNA (10 nM plasmid), agarose gel; SPR: same; settings: protein: recombinant; tags: none (His6-SUMO removed by Ulp1); blunt
T1 sequence: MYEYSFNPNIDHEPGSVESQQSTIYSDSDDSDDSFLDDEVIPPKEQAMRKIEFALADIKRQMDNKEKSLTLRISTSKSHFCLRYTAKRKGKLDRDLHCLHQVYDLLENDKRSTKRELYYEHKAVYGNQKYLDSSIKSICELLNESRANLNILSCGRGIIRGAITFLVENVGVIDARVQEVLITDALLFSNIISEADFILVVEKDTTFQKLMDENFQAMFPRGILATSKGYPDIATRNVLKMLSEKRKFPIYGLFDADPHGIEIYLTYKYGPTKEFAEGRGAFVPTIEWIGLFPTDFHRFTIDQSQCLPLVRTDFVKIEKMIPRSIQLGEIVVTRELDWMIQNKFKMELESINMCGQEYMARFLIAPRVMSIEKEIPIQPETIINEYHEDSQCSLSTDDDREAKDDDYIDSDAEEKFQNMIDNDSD

[2] = biological target: T1, SPO-11; test: EMSA; 2.4 uM SPO-11, 300 nM DNA; EMSA: 42.5 mM Tris-HCl pH 7.5, 115 mM KCl, 1 mM DTT, 0.1 mg/ml BSA, 3% glycerol, 0.15 mM EDTA, 20 C, 30 min, 300 nM DNA (10 nM plasmid), agarose gel; SPR: same; settings: protein: recombinant; tags: none (His6-SUMO removed by Ulp1); label: 3'-Cy5; blunt
[3] = biological target: T1, SPO-11; test: SPR; 20 C, steady-state affinity, no Mg2+; EMSA: 42.5 mM Tris-HCl pH 7.5, 115 mM KCl, 1 mM DTT, 0.1 mg/ml BSA, 3% glycerol, 0.15 mM EDTA, 20 C, 30 min, 300 nM DNA (10 nM plasmid), agarose gel; SPR: same; settings: protein: recombinant; tags: none (His6-SUMO removed by Ulp1); label: 5'-biotin; blunt
[4] = biological target: T2, SPO-11 E202A/D255A (Caenorhabditis elegans, UniProt Q22236 1-425, E202A;D255A); test: EMSA; with Mg2+; as proficient as WT; EMSA: 42.5 mM Tris-HCl pH 7.5, 115 mM KCl, 1 mM DTT, 0.1 mg/ml BSA, 3% glycerol, 0.15 mM EDTA, 20 C, 30 min, 300 nM DNA (10 nM plasmid), agarose gel; SPR: same; settings: protein: recombinant; tags: none (His6-SUMO removed by Ulp1); blunt
T2 sequence: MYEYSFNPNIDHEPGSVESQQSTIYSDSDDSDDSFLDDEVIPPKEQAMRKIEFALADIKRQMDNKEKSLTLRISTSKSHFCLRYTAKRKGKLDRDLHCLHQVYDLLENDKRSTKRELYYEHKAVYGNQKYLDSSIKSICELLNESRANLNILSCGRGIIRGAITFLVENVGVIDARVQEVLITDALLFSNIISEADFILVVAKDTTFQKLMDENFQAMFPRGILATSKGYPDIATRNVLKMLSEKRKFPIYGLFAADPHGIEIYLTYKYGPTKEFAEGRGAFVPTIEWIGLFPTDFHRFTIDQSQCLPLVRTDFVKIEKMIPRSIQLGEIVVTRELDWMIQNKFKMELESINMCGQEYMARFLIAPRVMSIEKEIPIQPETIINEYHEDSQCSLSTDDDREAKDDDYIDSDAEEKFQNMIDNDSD

[5] = biological target: T3, SPO-11 E202A (Caenorhabditis elegans, UniProt Q22236 1-425, E202A); test: as above; settings: protein: recombinant; tags: none (His6-SUMO removed by Ulp1); blunt
T3 sequence: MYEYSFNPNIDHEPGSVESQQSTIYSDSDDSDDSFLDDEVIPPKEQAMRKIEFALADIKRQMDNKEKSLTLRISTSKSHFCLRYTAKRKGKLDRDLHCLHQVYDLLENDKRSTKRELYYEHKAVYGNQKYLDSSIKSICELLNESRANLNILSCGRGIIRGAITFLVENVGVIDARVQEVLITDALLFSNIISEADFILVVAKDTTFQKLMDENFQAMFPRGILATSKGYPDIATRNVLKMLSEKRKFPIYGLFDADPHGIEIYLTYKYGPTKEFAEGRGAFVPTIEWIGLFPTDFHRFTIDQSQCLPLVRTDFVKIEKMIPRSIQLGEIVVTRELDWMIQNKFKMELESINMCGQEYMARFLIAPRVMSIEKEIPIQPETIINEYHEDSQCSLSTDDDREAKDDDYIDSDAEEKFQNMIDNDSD

[6] = biological target: T4, SPO-11 G290D (Caenorhabditis elegans, UniProt Q22236 1-425, G290D); test: EMSA; 20 C; EMSA: 42.5 mM Tris-HCl pH 7.5, 115 mM KCl, 1 mM DTT, 0.1 mg/ml BSA, 3% glycerol, 0.15 mM EDTA, 20 C, 30 min, 300 nM DNA (10 nM plasmid), agarose gel; SPR: same; settings: protein: recombinant; tags: none (His6-SUMO removed by Ulp1); blunt
T4 sequence: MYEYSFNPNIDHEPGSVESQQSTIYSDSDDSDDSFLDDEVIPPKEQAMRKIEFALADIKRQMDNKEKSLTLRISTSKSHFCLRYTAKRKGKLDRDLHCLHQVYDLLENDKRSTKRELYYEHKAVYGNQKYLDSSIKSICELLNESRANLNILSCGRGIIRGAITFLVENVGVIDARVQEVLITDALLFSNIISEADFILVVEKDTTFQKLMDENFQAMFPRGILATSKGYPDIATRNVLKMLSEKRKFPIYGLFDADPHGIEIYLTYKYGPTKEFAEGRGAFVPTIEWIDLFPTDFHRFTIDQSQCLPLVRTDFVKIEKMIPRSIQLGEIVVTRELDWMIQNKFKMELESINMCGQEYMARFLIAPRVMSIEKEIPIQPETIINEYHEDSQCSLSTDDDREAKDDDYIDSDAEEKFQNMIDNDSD

[7] = biological target: T5, SPO-11 Y118F/Y119F (Caenorhabditis elegans, UniProt Q22236 1-425, Y118F;Y119F); test: EMSA; as proficient as WT; EMSA: 42.5 mM Tris-HCl pH 7.5, 115 mM KCl, 1 mM DTT, 0.1 mg/ml BSA, 3% glycerol, 0.15 mM EDTA, 20 C, 30 min, 300 nM DNA (10 nM plasmid), agarose gel; SPR: same; settings: protein: recombinant; tags: none (His6-SUMO removed by Ulp1); blunt
T5 sequence: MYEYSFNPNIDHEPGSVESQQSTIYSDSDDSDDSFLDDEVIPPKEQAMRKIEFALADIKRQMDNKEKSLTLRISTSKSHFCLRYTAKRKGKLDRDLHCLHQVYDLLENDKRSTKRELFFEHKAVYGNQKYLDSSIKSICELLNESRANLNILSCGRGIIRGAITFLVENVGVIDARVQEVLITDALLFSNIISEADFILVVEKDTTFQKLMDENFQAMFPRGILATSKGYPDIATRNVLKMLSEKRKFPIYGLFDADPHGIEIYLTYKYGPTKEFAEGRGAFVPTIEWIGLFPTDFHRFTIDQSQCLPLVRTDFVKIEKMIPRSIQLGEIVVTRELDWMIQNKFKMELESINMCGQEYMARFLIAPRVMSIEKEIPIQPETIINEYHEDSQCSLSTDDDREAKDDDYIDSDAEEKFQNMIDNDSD

[8] = biological target: T6, SPO-11 Y119F (Caenorhabditis elegans, UniProt Q22236 1-425, Y119F); test: as above; settings: protein: recombinant; tags: none (His6-SUMO removed by Ulp1); blunt
T6 sequence: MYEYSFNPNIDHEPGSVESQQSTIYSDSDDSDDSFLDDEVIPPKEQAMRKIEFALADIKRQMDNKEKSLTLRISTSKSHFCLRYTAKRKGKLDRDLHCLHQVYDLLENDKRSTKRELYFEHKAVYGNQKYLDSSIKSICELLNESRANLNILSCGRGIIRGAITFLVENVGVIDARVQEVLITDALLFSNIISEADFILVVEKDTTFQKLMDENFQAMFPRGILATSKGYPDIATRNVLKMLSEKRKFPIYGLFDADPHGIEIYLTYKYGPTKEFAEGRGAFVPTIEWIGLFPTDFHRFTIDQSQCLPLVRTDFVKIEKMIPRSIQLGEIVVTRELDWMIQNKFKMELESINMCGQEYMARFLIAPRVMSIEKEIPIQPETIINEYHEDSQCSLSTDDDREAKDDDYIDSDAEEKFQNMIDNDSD

[9] = biological target: T1, SPO-11; test: EMSA; 20 C, no Mg2+; EMSA: 42.5 mM Tris-HCl pH 7.5, 115 mM KCl, 1 mM DTT, 0.1 mg/ml BSA, 3% glycerol, 0.15 mM EDTA, 20 C, 30 min, 300 nM DNA (10 nM plasmid), agarose gel; SPR: same; settings: protein: recombinant; tags: none (His6-SUMO removed by Ulp1); blunt

B1: 80 bp dsDNA (dsDNA)
DNA 1: TTATGTTCATTTTTTATATCCTTTACTTTATTTTCTCTGTTTATTCATTTACTTATTTTGTATTATCCTTATCTTATTTA
DNA 2: TAAATAAGATAAGGATAATACAAAATAAGTAAATGAATAAACAGAGAAAATAAAGTAAAGGATATAAAAAATGAACATAA
- binding result [1]: binds

B2: 80 bp dsDNA, Cy5 (dsDNA)
DNA 1: TTATGTTCATTTTTTATATCCTTTACTTTATTTTCTCTGTTTATTCATTTACTTATTTTGTATTATCCTTATCTTATTTA
DNA 2: TAAATAAGATAAGGATAATACAAAATAAGTAAATGAATAAACAGAGAAAATAAAGTAAAGGATATAAAAAATGAACATAA
modifications: 3'-Cy5 on strand 1
- binding result [2]: binds

B3: 100 bp dsDNA, 5'-biotin (dsDNA)
DNA 1: AATATGATAGATAATGATAGTGATGAGGGACGTGGATCTCTTCTTACCTGCGGAGACGTCGAGGAGAACCCAGGACCAGGGGTACCTATGGCCTCCTCCG
DNA 2: CGGAGGAGGCCATAGGTACCCCTGGTCCTGGGTTCTCCTCGACGTCTCCGCAGGTAAGAAGAGATCCACGTCCCTCATCACTATCATTATCTATCATATT
modifications: 5'-biotin (strand not stated)
- Kd [3]: ~470 nM

B4: 100 bp dsDNA (dsDNA)
DNA 1: AATATGATAGATAATGATAGTGATGAGGGACGTGGATCTCTTCTTACCTGCGGAGACGTCGAGGAGAACCCAGGACCAGGGGTACCTATGGCCTCCTCCG
DNA 2: CGGAGGAGGCCATAGGTACCCCTGGTCCTGGGTTCTCCTCGACGTCTCCGCAGGTAAGAAGAGATCCACGTCCCTCATCACTATCATTATCTATCATATT
- binding result [4]: binds
- binding result [5]: binds
- binding result [6]: no binding
- binding result [7]: binds
- binding result [8]: binds
- binding result [9]: binds
